{
  "source": "patent US7977317B2",
  "about": "“Compositions and methods for modulating blood-brain barrier transport” (Raptor Pharmaceutical Inc., priority 2001, dated 2011)",
  "molecules": {"B1": {"name": "p97: recombinant human melanotransferrin (p97), provided by Synapse Technologies (protein, UniProt P08582 20-709, looked up)", "Melanotransferrin": "GMEVRWCATSDPEQHKCGNMSEAFREAGIQPSLLCVRGTSADHCVQLIAAQEADAITLDGGAIYEAGKEHGLKPVVGEVYDQEVGTSYYAVAVVRRSSHVTIDTLKGVKSCHTGINRTVGWNVPVGYLVESGRLSVMGCDVLKAVSDYFGGSCVPGAGETSYSESLCRLCRGDSSGEGVCDKSPLERYYDYSGAFRCLAEGAGDVAFVKHSTVLENTDGKTLPSWGQALLSQDFELLCRDGSRADVTEWRQCHLARVPAHAVVVRADTDGGLIFRLLNEGQRLFSHEGSSFQMFSSEAYGQKDLLFKDSTSELVPIATQTYEAWLGHEYLHAMKGLLCDPNRLPPYLRWCVLSTPEIQKCGDMAVAFRRQRLKPEIQCVSAKSPQHCMERIQAEQVDAVTLSGEDIYTAGKTYGLVPAAGEHYAPEDSSNSYYVVAVVRRDSSHAFTLDELRGKRSCHAGFGSPAGWDVPVGALIQRGFIRPKDCDVLTAVSEFFNASCVPVNNPKNYPSSLCALCVGDEQGRNKCVGNSQERYYGYRGAFRCLVENAGDVAFVRHTTVFDNTNGHNSEPWAAELRSEDYELLCPNGARAEVSQFAACNLAQIPPHAVMVRPDTNIFTVYGLLDKAQDLFGDDHNKNGFKMFDSSNYHGQDLLFKDATVRAVPVGEKTTYRGWLGLDYVAALEGMSSQQC"}},
  "key": {"BBCEC monolayers": {"test_system": "BBCEC monolayers", "test": "Transcytosis of bovine [125I]-lactoferrin across BBCEC monolayers, inhibition by p97", "type": "cell-based", "conditions": "200-fold molar excess of unlabelled p97, 37° C. (FIG. 16c)"}, "[1]": {"test": "In situ brain perfusion with capillary depletion", "type": "in vivo", "conditions": "mice, 10 min perfusion", "procedure": "(§1) FIG. 11 examines the accumulation and transcytosis of p97. FIG. 11a, of [^125I]-p97, [^125I]-BSA and [^125I]-holo-transferrin one hour after i.v. injection. The radioactivity in brain was compared between the three compounds. (n=3); FIG. 11b, Accumulation of p97 and transferrin into the mouse brain parenchyma. In situ brain perfusion was performed with human [^125I]-p97 or [^125I]-holo-transferrin at a final concentration of 10 nM via a catheter inserted in the right common carotid artery. The volume of distribution (VD) of [^125I]-proteins were obtained in the whole brain homogenate (white bars), in brain capillaries (solid bars) and in brain parenchyma (hatched bars) after isolation of the right hemisphere and capillary depletion. Results were obtained for p97 (n=10) and for holo-transferrin (n=6); FIG. 11c, Transcytosis of p97 across BBCEC monolayers. Transcytosis experiments were performed 37° C. (open circles) and 4° C. (closed circles) with BBCEC monolayers. […] Apical-to-basal and basal-to-apical transport of [^125I]-p97 (25 nM) was measured for 2 hrs at 37° C. At the end of the experiment, [^125I]-p97 was assessed in the lower or upper chambers of each well by TCA precipitation (n=4).\n(§2) A. Brain uptake and in situ brain perfusion. […] The serum and brain samples were collected and the levels of radioactivity were measured. […]"}, "[2]": {"test": "Brain uptake one hour after i.v. injection", "type": "in vivo", "conditions": "mice, one hour after i.v. injection of [125I]-protein (FIG. 11a)", "procedure": "as §1, §2"}, "mAb L235": {"test_system": "mAb L235", "test": "BIAcore analysis of native and boiled p97 on immobilized mAb L235", "type": "physicochemical", "conditions": "in Ringer/Hepes solution, boiled 5 to 30 min (FIG. 13b)", "procedure": "FIG. 13 illustrates the transcytosis and accumulation of p97 and transferrin in BBCEC monolayers. FIG. 13a, Transcytosis experiments were performed at 37° C. (solid bars) or 4° C. (white bars). [^125I]-p97 or bovine [^125I]-holo-transferrin (1 mg/ml) was added to the upper side of the cell-covered filter. At the end of the experiment, radiolabelled proteins were measured in the lower chamber of each well by TCA precipitation (n=4). Controls were also performed at 37° C. with denatured [^125I]-p97 or bovine [^125I]-holo-transferrin boiled for 30 min (grey bars) (n=2); FIG. 13b, Biospecific interaction analysis was performed with native or boiled p97 for the indicated times. MAb L235 (5 μg) was immobilized on a sensor chip (SM5) using standard procedures incorporating NHS, EDC and ethanolamine. Native and boiled p97 (5 to 30 min) diluted at 1 mg/ml in Ringer/Hepes was cooled and injected into the BIAcore. The surface plasmon resonance response obtained for native p97 and boiled p97 was plotted (in relative units (RU)) as a function of time; FIG. 13c, The accumulation of both proteins into BBEC cells were also measured. Briefly, after incubation at 37° C. (solid bars) or 4° C. […] Accumulation of both denatured proteins (grey bars) was also measured at 37° C. Filters were then removed, and the radioactivity associated with the cells was quantified (n=3). […]"}},
  "data": [
    {"molecule": "B1", "values": [
      {"measurement": "Inhibition of the transcytosis of bovine [125I]-lactoferrin", "setting": "BBCEC monolayers", "result": "more than 75%"},
      {"measurement": "Apparent VD of p97 in brain parenchyma relative to transferrin", "setting": "[1]", "result": 8.8, "unit": "fold"},
      {"measurement": "Apparent VD in the brain parenchyma", "setting": "[1]; 10 nM [125I]-protein (FIG. 11b)", "result": 17.2, "unit": "ml/100 g"},
      {"measurement": "Brain/serum ratio", "setting": "[2]", "result": 0.025},
      {"measurement": "Resistance to heat denaturation", "setting": "mAb L235", "result": "resistant to heat denaturation"}
    ]}
  ]
}
